From publication PMC4815018, “Oligomerization as a strategy for cold adaptation: Structure and dynamics of the GH1 β-glucosidase from Exiguobacterium antarcticum B7” (Scientific Reports, 2016) come the findings set out here.

In one assay the target is T1, EaBglA (Exiguobacterium antarcticum, UniProt A0ABF7PFW8).
T1 construct: gene bglA
Put plainly: colorimetric release of 4-nitrophenol at […] nm. In kind it is biochemical. Particulars: 0.5 mM pNPG, 20 nM enzyme, 40 mM sodium phosphate pH 7.0, 30 °C, 10 min; tetramer.

Assay [1] concerns the target GH1 β-glucosidase from Exiguobacterium antarcticum B7 (Exiguobacterium antarcticum B7). Kind of assay: AUC; sedimentation velocity, 35,000 rpm, 20 °C, 0.2, 0.4 and 1 mg/mL in 20 mM sodium phosphate, 150 mM NaCl, pH 7.4.
For assay [2] the target is unchanged. Put plainly: SEC; Superdex 75 16/60, 20 mM sodium phosphate, 150 mM NaCl, pH 7.5, 0.5 mL/min; two peaks (tetramers and monomers); samples at 4 mg/mL.
The target is the same in assay [3]. Put plainly: SAXS; 1 and 2 mg/mL in 20 mM sodium phosphate, 150 mM NaCl, pH 7.4, 20 °C; experimental curve and ab initio model compared with the crystallographic tetramer.
Assay [4] shares this target. Kind of assay: crystal structure; two crystal forms, P2(1) (0.1 M TRIS pH 8.5, 2% PEG400, 1.45 M lithium sulfate) and C222(1) (0.1 M CAPS pH 10.5, 0.2 M lithium sulfate, 2 M ammonium sulfate, in situ proteolysis with trypsin); 18 °C, protein at 15 mg/mL.
For assay [5] the target is unchanged.

T1 sequence (A0ABF7PFW8 entry or part of it): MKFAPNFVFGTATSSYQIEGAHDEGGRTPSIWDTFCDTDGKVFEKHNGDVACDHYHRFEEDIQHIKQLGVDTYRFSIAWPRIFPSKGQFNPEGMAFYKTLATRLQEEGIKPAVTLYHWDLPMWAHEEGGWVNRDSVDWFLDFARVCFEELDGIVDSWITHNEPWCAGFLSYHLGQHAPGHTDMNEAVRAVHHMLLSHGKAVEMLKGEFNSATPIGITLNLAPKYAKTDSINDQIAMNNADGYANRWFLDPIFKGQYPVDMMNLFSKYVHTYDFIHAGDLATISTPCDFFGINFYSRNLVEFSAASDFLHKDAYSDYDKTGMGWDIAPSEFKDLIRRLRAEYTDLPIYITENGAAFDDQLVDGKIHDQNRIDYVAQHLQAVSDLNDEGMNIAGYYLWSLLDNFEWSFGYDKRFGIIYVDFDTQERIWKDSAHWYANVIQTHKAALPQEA

As to `O=[N+]([O-])c1ccc(O[C@@H]2O[C@H](CO)[C@@H](O)[C@H](O)[C@H]2O)cc1` [4-nitrophenyl β-D-glucopyranoside], on EaBglA, the “relative activity (%)” value was “Enzyme activity was measured using the colorimetric substrate 4-nitrophenyl β-D-glucopyranoside (pNPG”.

Turning to “GH1 β-glucosidase from Exiguobacterium antarcticum B7 (enzyme)”, the stoichiometry N in assay [1], in assay [2], in assay [3] and in assay [4] was 4 in each case. This molecule also gave a relative enzyme activity on pNPG (30 °C, pH 7.0, 20 nM enzyme) of the monomer fraction against the tetramer fraction in assay [5] of 10 fold.
